Test [1] deals with PKC substrate C-terminally tagged with the yellow fluorescent protein YPet. Briefly: cell-based or functional assay.
The target of test [2] is PKA substrate (modified Kemptide containing a consensus phosphorylation site for Protein Kinase A) C-terminally tagged with the yellow fluorescent protein YPet. Nature of the test: cell-based or functional assay.

For “FHA1 (forkhead associated domain 1 of the yeast protein Rad53) tagged at its N-terminus with the cyan fluorescent protein Cerulean (from UniProt P22216 22-162)”, the increase in yellow/cyan emission ratio (intermolecular FRET) after PMA in 1205-Lu cells co-expressing both constructs in test [1] amounted to 30%. For the same substance, the increase in yellow/cyan emission ratio (intermolecular FRET) after Forskolin in 1205-Lu cells co-expressing both constructs in test [2] was found to be 60%.

Source of the values: patent US20100202970A1.
